Data reported in the supplement of paper PMC9170038.

Tested on: K4 kissing-loop RNA reporter
Experiment: apparent KD of K4 kissing-loop reporter; higher = weaker reporter binding
Settings: Eterna round: R107; input ligand: theophylline 20 uM
Experimental: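 RNA-MaP round R107: designed RNA switches with theophylline, tryptophan, arginine or FMN aptamers are transcribed on-chip within common flanks. They are titrated with a labelled K4 kissing-loop RNA reporter in RNA-MaP buffer (100 mM Tris pH 7.5, 80 mM KCl, 4 mM MgCl2), without ligand or with the indicated ligand. Median apparent KD per design.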
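Also: bound reporter read as fluorescence of individual clusters on recovered sequencing chips by microscopy, with normalized cluster intensities fitted with a binding model.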

Sequence | apparent KD of K4 kissing-loop reporter
CCAUUCUGUUACGAUACCAGUCAAAUAUAUUUGAUCAAUACCCUCGCCGAGUGAUGUUCGGACCCUUGGCAGCGUCUGGGACAGG [ccdfmullin] | 544 nM
CCCUCACGAGUGAUGUUCGUAGGGUACAGUCAGGAUAUCAUGCGGUUGAGAAGGGACAGAAAGGGCGGCCACGGGUUGCUCAUUU [Issogeso] | 492 nM
UCGGCAGUGAACGAUACCAGCGUCACGUGGCUGGUGGUCACAUGAGUGAUGUUCAUGUAACGCCCUUGGCAGCGUGCGCGUACCG [KL-XTheo-B11] | 94.7 nM
UGAUACCAGACGGCCGCCACUCCCGUAAGUCAAAGACUUACGAAGAGAGUUAUCCAGUGAUGUUGGAGGACCGGGUCUGGUAUCU [FiskerMod 14 - Jieux - Exclusion - Tryptophan B] | 199 nM
CCGAGCCUGACGUAAGUCAGGCUCUGCGAGCGAGGACCGGUACGGCCGCCACUCGGUGCAGUGAUGUUGCAUGGCCGCAAGGCCG [#2 Exclusion - Tryptophan A Attempt #23 (HarryS)] | 235 nM
UAGUCCUAGUGAUGGUCAUCACGUGGCGGGCGAGGACCGGUACGGCCGCCACUCGACUUUGCAGUGAUGUUGCAAACCGGACAAU [Exclusion - Tryptophan A (Freestyle 20)] | 136 nM
CGCCGCAAGGCGAGCGCUCCCACUCCGGAAGGAGCGCCCGUAAGGGCAGGUAGGUCGCCGGAGUGAUGUUCCGGUGGAGGGCUCG [#2 Exclusion - Arginine A Attempt #14 (Inspired by Omei)] | 33 nM
UGAUACCAGACGGCCGCCACUGCACCAGUCAAUGACUGAGCGCGGUGGCGCUCAGUGAUGUUGAGCAGGACCGGGUCUGGUAUCU [Mod of Eli's TrypBX 8 v4] | 145 nM
CGCGCGCGCUUGAGAGGGCGCGCGCGAAGUGAGGAUAUUUAGGGAGAAAGAAGGCACUAUAAAAUAUAGUGAUGUUAUAUAAGGG [SSFMNA.E] | 2790 nM
UUGUUUGGUUGAGAGGUUGGGCGAGAUGAUACCAGUAUAGUAUUGUACCCUUGGCAGCAUAGGAGAGAUAUAGUGAUGUUGUAUG [SSTheophA.W] | 416 nM
AAGCAGUCACUCAAAGCCAUCGAAGAUGGACGAGGACCGGUACGGCCGCCACUCGGAGUGAUGUUCCGAAGACUGCAAAAUAAAA | 511 nM

Same assay, conditions: Eterna round: R107; input ligand: tryptophan 2.4 mM

Sequence | apparent KD of K4 kissing-loop reporter
CGCGCGCGUUUGAGAGGGCGCGCGCGAAGUGAGGAUAUUUAGGGAGAAAGAAGGCACUAUAAAAUAUAGUGAUGUUAUAUAAGGG [SSFMNA.F] | 186 nM
AAAAUAAUCCAGUGAUGUUGGUAUGCAGAUACCAGCGACGAAAGUCGCCCUUGGCAGCUGUGGACGUACAAAAUAAGUACGUCCU | 855 nM
UUGCAAGAGUCGGCCGCCACUCCGGGCCCUAUAAAUGGGCGCAGUGAUGUUGCGGCUAGGCCUCUGAGGACCGGGACUUUGUAGC [Ateusraor] | 111 nM
AGAGAUAUAUGAGGAUAUGGGUUAGUUAAUGAGUUAGUUUUAGUGUUGUUUGGUUAGUGAUGUUAUUUAGAAGGCGUGAGUGAUG [cqqbmullin] | 66.2 nM
CAAACUCUGACGGCCGCCACUAAUCGUGUAACAGUGAUGUUGUUACAUCAAAGAUGGGUUGCGUGUAGGACCGGGUCGACGCAAA [theeternabot_exclusion_KL_Trp_B_48] | 124 nM
UGCUUAAUGGAAGGAUAUUAGGGUUCGACCGCGUAUCAUUGUUAGUCUGGCCAGUGAUGUUGGCCUUAAGAAGGUCCGCUACGGU [theeternabot_exclusion_KL_FMN_B_27] | 130 nM
GUUACGCAUGGAAGGAGCGCUCUCCGGUUGAUUGACACAGUGAUGUUGUGAUUCUACCGUAAGCAGGUAGGUCGCCAUGUGUAAC [Ex Arginine B K4 13] | 921 nM
UUCGAAAGUCGAAGGAGCGCUGGCGGUCAUAGACUAUAUCUGUAGUGAUGUUACAGAUUCCAGCAGGUAGGUCGCGACAGAGACA [Arg B SS t18b] | 108 nM
AGUGGUGUAUCUUUUAAGAGUGAUGUUUUUCGAGGACCGGUACGGCCGCCACUCGAGUGAUGAGUGCGUCGUUGUGGUGAUUAGU [#14 K4 Tryptophan A Exclusion] | 262 nM
UGUCAUUGGUCUGAUACCAGUUGAUGACGAAUACGUCAACUGGAGUGAUGUUCCUAAAACAACCCUUGGCAGCAGACCGAUGACU [TheoBS 1 #SwitchBubble #StaticStem] | 564 nM
GGCAUGCGUAGAGUGAUGUUCUAAGAUGAUACCAGUGCGGAAACGCACCCUUGGCAGCAUCUGACUGGCAUGCCGGCGAAAGCCU | 982 nM
GGAGAGGUCUUGUUUGGAUGUGUUUAAUGGCGAGGACCGGUACGGCCGCCACUCGGGUGAUGUUAGUGAUGUUGAUGUUGUGAUG ['oo'mullin] | 116 nM
ACGGAGUGAUGUUCCGGCCUCCCAGCAGAUACCAGCAGUCGCGAUUGCCCUUGGCAGCUGUCCGCGGCAUCCACUUGUAGCGGUA [theeternabot_exclusion_KL_Theo_A_12] | 197 nM
CCUAUCUCAUACGAUACCAGUGAAUUAAUAUUUAUAAGCAGUGAUGUUGCAUUCCAAGUACACCCUUGGCAGCGUAUGGGAUAGG [Ex Theophylline B K4 20] | 120 nM
UAUAUACAUUUAUUAAUUAAAGGUUCAGAAGGAGCGUGAAUUAACACAGGUAGGUCGCUGAGCGAGUGAUGUUCGCUAUAUGGUA [JR_ExcArginiA_Sub005] | 55.7 nM
